Among the data in article PMC11110689 are EC50 of the oxygen level for oxomer formation values, retold here.

The target of this test is factor inhibiting HIF (FIH), V5-tagged (FIH-V5) (UniProt Q9NWT6). The experiment in a line: immunoblot of a denaturation-resistant (SDS-PAGE) complex; cells co-transfected, 24 h at the indicated oxygen levels (18.5–1% O2), blots quantified, oxygen sensitivity calculated.
Chain of UniProt Q9NWT6 (Q9NWT6 whole entry): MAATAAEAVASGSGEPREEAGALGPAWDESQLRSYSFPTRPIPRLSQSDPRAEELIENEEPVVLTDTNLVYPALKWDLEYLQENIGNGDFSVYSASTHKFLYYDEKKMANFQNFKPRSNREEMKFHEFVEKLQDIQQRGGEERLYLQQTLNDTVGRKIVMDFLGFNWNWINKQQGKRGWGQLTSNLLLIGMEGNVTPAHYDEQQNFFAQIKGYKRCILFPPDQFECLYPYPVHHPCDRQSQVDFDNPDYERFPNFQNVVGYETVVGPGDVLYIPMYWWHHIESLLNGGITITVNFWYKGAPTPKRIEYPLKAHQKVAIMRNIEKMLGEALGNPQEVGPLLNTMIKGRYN

In the case of “NF-κB inhibitor β (IκBβ), FLAG-tagged (IκBβ-FLAG) (from UniProt Q15653 1-356) (natural protein)”, the EC50 of the oxygen level for oxomer formation is 7.6 % O2.
